Data on 5 molecules can be found in article PMC2966277 (Cell, 2010).

Data set [1] deals with the molecule itself. The experiment in a line: SEC-MALS.
In data set [2] the target is microtubules (UniProt Q6B856 1-445). The experiment in a line: co-sedimentation.
Data set [3] concerns the target T1, GFP-PRC1-FL (GFP-tagged full-length PRC1, aa 1-620) (human), O43663.
T1 chain: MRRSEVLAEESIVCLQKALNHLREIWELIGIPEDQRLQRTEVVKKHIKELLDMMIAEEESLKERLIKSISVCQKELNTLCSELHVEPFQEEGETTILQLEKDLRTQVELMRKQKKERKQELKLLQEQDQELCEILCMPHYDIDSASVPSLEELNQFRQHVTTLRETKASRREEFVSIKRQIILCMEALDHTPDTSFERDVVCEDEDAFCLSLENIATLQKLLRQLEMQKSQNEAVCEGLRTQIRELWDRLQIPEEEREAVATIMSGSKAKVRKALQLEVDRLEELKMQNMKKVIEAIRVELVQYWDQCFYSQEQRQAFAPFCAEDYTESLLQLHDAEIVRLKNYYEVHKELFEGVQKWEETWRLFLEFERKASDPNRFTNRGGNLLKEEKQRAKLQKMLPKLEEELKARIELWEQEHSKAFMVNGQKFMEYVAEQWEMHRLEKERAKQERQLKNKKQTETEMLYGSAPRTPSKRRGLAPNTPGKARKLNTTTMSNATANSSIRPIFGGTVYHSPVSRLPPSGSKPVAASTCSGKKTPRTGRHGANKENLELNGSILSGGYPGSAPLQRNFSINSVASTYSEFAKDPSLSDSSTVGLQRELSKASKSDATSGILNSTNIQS
The experiment in a line: single-molecule fluorescence intensity analysis. The settings on record: remark: other sources report otherwise.

The target in data set [4] is T2, PRC1-FL (untagged full-length PRC1) (human), O43663.
T2 chain: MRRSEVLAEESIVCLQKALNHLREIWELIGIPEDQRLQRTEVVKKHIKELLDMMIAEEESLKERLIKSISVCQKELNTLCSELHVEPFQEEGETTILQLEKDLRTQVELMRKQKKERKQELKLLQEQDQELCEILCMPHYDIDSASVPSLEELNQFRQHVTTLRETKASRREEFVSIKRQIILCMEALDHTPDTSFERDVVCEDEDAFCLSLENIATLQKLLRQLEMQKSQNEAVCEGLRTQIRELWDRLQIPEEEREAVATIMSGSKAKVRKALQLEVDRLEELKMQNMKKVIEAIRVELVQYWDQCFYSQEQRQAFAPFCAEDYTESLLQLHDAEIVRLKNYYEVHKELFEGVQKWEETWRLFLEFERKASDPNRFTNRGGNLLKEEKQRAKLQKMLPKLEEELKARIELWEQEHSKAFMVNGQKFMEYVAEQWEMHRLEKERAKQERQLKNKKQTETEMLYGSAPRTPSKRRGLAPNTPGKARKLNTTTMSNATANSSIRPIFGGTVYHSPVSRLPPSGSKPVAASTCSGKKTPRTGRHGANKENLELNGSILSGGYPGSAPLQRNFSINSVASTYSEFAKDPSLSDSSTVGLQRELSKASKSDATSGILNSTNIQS
The settings on record: remark: other sources report otherwise.

B1: PRC1-NSΔC (aa 1-486) (domain or fragment, human, UniProt O43663 1-486, looked up)
chain: MRRSEVLAEESIVCLQKALNHLREIWELIGIPEDQRLQRTEVVKKHIKELLDMMIAEEESLKERLIKSISVCQKELNTLCSELHVEPFQEEGETTILQLEKDLRTQVELMRKQKKERKQELKLLQEQDQELCEILCMPHYDIDSASVPSLEELNQFRQHVTTLRETKASRREEFVSIKRQIILCMEALDHTPDTSFERDVVCEDEDAFCLSLENIATLQKLLRQLEMQKSQNEAVCEGLRTQIRELWDRLQIPEEEREAVATIMSGSKAKVRKALQLEVDRLEELKMQNMKKVIEAIRVELVQYWDQCFYSQEQRQAFAPFCAEDYTESLLQLHDAEIVRLKNYYEVHKELFEGVQKWEETWRLFLEFERKASDPNRFTNRGGNLLKEEKQRAKLQKMLPKLEEELKARIELWEQEHSKAFMVNGQKFMEYVAEQWEMHRLEKERAKQERQLKNKKQTETEMLYGSAPRTPSKRRGLAPNTPGKAR
Take B1: in data set [1], the “stoichiometry N” value was 2.

B2: PRC1-S (aa 341-466) (domain or fragment, human, UniProt O43663 341-466, looked up)
chain: LKNYYEVHKELFEGVQKWEETWRLFLEFERKASDPNRFTNRGGNLLKEEKQRAKLQKMLPKLEEELKARIELWEQEHSKAFMVNGQKFMEYVAEQWEMHRLEKERAKQERQLKNKKQTETEMLYGS
In data set [2], B2 came in with a Kd of 3.3 ± 1.8 µM.

B3: PRC1-SC (aa 341-620) (domain or fragment, human, UniProt O43663 341-620, looked up)
chain: LKNYYEVHKELFEGVQKWEETWRLFLEFERKASDPNRFTNRGGNLLKEEKQRAKLQKMLPKLEEELKARIELWEQEHSKAFMVNGQKFMEYVAEQWEMHRLEKERAKQERQLKNKKQTETEMLYGSAPRTPSKRRGLAPNTPGKARKLNTTTMSNATANSSIRPIFGGTVYHSPVSRLPPSGSKPVAASTCSGKKTPRTGRHGANKENLELNGSILSGGYPGSAPLQRNFSINSVASTYSEFAKDPSLSDSSTVGLQRELSKASKSDATSGILNSTNIQS
Take B3: binding in data set [2] was characterised by a dissociation constant (Kd) of 0.6 ± 0.3 µM.

B4: GFP-PRC1-FL (GFP-tagged full-length PRC1, aa 1-620), O43663 1-620 (natural protein)
chain: MRRSEVLAEESIVCLQKALNHLREIWELIGIPEDQRLQRTEVVKKHIKELLDMMIAEEESLKERLIKSISVCQKELNTLCSELHVEPFQEEGETTILQLEKDLRTQVELMRKQKKERKQELKLLQEQDQELCEILCMPHYDIDSASVPSLEELNQFRQHVTTLRETKASRREEFVSIKRQIILCMEALDHTPDTSFERDVVCEDEDAFCLSLENIATLQKLLRQLEMQKSQNEAVCEGLRTQIRELWDRLQIPEEEREAVATIMSGSKAKVRKALQLEVDRLEELKMQNMKKVIEAIRVELVQYWDQCFYSQEQRQAFAPFCAEDYTESLLQLHDAEIVRLKNYYEVHKELFEGVQKWEETWRLFLEFERKASDPNRFTNRGGNLLKEEKQRAKLQKMLPKLEEELKARIELWEQEHSKAFMVNGQKFMEYVAEQWEMHRLEKERAKQERQLKNKKQTETEMLYGSAPRTPSKRRGLAPNTPGKARKLNTTTMSNATANSSIRPIFGGTVYHSPVSRLPPSGSKPVAASTCSGKKTPRTGRHGANKENLELNGSILSGGYPGSAPLQRNFSINSVASTYSEFAKDPSLSDSSTVGLQRELSKASKSDATSGILNSTNIQS
In data set [3], B4 came in with a stoichiometry N of 2.

B5: PRC1-FL (untagged full-length PRC1), O43663 1-620 (natural protein)
chain: MRRSEVLAEESIVCLQKALNHLREIWELIGIPEDQRLQRTEVVKKHIKELLDMMIAEEESLKERLIKSISVCQKELNTLCSELHVEPFQEEGETTILQLEKDLRTQVELMRKQKKERKQELKLLQEQDQELCEILCMPHYDIDSASVPSLEELNQFRQHVTTLRETKASRREEFVSIKRQIILCMEALDHTPDTSFERDVVCEDEDAFCLSLENIATLQKLLRQLEMQKSQNEAVCEGLRTQIRELWDRLQIPEEEREAVATIMSGSKAKVRKALQLEVDRLEELKMQNMKKVIEAIRVELVQYWDQCFYSQEQRQAFAPFCAEDYTESLLQLHDAEIVRLKNYYEVHKELFEGVQKWEETWRLFLEFERKASDPNRFTNRGGNLLKEEKQRAKLQKMLPKLEEELKARIELWEQEHSKAFMVNGQKFMEYVAEQWEMHRLEKERAKQERQLKNKKQTETEMLYGSAPRTPSKRRGLAPNTPGKARKLNTTTMSNATANSSIRPIFGGTVYHSPVSRLPPSGSKPVAASTCSGKKTPRTGRHGANKENLELNGSILSGGYPGSAPLQRNFSINSVASTYSEFAKDPSLSDSSTVGLQRELSKASKSDATSGILNSTNIQS
For B5, the stoichiometry N in data set [4] stood at 2.
